Assay results: patent US20200200750A1 (E AND S HEALTHCARE, published 2020)

Molecular target: T1, human thioredoxin-1 (Trx1) protein (human, UniProt P10599 1-105)
T1 construct: also called naked Trx1; antigen
T1 sequence (looked up): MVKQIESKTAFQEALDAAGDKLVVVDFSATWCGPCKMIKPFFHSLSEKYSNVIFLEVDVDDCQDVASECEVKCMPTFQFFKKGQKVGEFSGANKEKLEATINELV
Assay: ELISA on coated Trx1 (100 ng/well), antibody diluted 1/5 from 0.1 µM, fit with Prism

- Kd: 0.011 nM
B1: monoclonal antibody B266-1 (antibody, V domains shown)
VH: EVQLQQSGAELVKPGASVKLSCTASGFNIKDTFMHWVKQRPEQGLEWIGRIDPANGNTKYDPKFQGKATITADTSSNTAYLQLSSLTSEDTAVYYCALLQYSAMDYWGQGTSVTVSS
VL: QIVLTQSPAIMSASPGEKVTMTCSASSRISYMYWYQQKPGTSPKRWIYDTSKLASGVPARFSGSGSGTSYSLTISTMEAEDAATYYCHQRSSYPTFGAGTKLELKS
